Experimental data: patent US20140212436A1
pKd: −log10 of the molar value. Like-named read-outs stand apart in the source and are kept apart here.

How the values were obtained:
Assay in all cases: Biacore
[1] = target: human FcγRI (human) (UniProt P12314)
[2] = target: FcγRIIaR (human) (UniProt P12318)
[3] = target: human V158 FcγRIIIa (human) (UniProt P08637)
[4] = target: human H131 FcγRIIa (human) (UniProt P12318)
[5] = target: recombinant human FcγRIIb protein (human) (UniProt P31994)
[6] = target: human FcγRI (human) (UniProt P12314); remark: listed apart in the source
[7] = target: human H131 FcγRIIa (human) (UniProt P12318); remark: listed apart in the source
[8] = target: recombinant human FcγRIIb protein (human) (UniProt P31994); remark: listed apart in the source

Chain of human H131 FcγRIIa (human) (P12318 other isoform, or with tags, fused parts or gaps limits assumed): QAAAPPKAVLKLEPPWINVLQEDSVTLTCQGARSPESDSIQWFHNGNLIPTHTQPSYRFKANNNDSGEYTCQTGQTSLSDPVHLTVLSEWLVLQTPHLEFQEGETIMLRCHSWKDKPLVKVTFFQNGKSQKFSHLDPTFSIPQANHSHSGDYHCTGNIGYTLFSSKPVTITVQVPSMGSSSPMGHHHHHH
Chain of human V158 FcγRIIIa (human) (P08637 other isoform, or with tags, fused parts or gaps limits assumed): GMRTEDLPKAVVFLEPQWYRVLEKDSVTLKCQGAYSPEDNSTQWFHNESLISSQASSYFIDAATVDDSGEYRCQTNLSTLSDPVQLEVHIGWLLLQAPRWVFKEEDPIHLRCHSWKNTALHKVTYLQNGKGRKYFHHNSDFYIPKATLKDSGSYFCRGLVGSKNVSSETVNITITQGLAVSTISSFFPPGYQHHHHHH
Chain of recombinant human FcγRIIb protein (human) (P31994 46-217 limits assumed): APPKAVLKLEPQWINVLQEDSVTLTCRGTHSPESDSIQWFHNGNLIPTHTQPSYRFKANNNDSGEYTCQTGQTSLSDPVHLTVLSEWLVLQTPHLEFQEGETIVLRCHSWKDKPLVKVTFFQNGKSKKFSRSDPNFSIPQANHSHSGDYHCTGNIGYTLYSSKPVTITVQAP
Chain of human FcγRI (human) (P12314 16-288 limits assumed): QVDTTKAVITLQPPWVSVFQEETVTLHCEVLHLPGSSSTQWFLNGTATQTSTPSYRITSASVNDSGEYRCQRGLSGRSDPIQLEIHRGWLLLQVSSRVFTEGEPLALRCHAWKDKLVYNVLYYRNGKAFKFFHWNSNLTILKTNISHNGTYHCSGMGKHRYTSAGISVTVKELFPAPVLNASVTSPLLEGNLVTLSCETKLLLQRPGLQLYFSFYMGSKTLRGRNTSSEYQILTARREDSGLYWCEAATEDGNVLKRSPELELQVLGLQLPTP
Chain of FcγRIIaR (human) (P12318 34-217 H167R limits assumed): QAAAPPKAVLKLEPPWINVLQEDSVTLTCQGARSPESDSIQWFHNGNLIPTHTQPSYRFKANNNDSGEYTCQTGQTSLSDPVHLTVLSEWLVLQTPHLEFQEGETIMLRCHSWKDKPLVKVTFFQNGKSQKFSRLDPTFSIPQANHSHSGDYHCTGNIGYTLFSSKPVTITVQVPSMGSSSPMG

Substance	Fold [1]	pKd [1]	Fold [2]	pKd [2]	Fold [3]	pKd [3]	Fold [4]	pKd [4]	Fold [5]	pKd [5]	pKd [6]	pKd [7]	pKd [8]
A327D (antibody)	2.06	9.80	1.6	6.27	0.398	6.32	0.733	6.05	1.33	5.96	–	–	–
G236D/S239D/S267E (antibody)	0.0685	8.32	26.7	7.49	–	–	0.217	5.53	84.8	7.76	–	–	–
G236S (antibody)	0.0268	7.91	2.33	6.43	0.00367	4.28	3.76	6.76	1.02	5.84	–	–	–
G236T (antibody)	0.0157	7.68	0.35	5.61	–	–	0.486	5.88	0.00225	3.19	–	–	–
G237N/S267E (antibody)	0.101	8.49	61.5	7.85	–	–	–	–	40.5	7.44	–	–	–
H268E (antibody)	2.74	9.92	3.19	6.57	2.19	7.06	1.43	6.34	2.62	6.25	–	–	–
L234D/S267E (antibody)	0.0286	7.94	12.7	7.17	0.14	5.86	–	–	21.7	7.17	–	–	–
L234E/S267E/L328F (antibody)	0.0425	8.11	174	8.31	–	–	0.0725	5.05	195	8.12	–	–	–
L234F (antibody)	0.0362	8.04	0.228	5.42	–	–	–	–	0.409	5.44	–	–	–
L234F/S267E (antibody)	0.661	9.30	20.7	7.38	0.0938	5.69	0.509	5.90	26.4	7.25	–	–	–
L235A (antibody)	0.0179	7.74	0.166	5.29	0.314	6.22	0.0486	4.88	0.351	5.38	–	–	–
L235D/S267E/L328F (antibody)	0.00057	6.24	133	8.19	–	–	0.275	5.63	80.4	7.74	–	–	–
L235I (antibody)	0.0197	7.78	0.666	5.89	0.903	6.67	0.181	5.45	0.908	5.79	–	–	–
L235Y (antibody)	0.00232	6.85	1.28	6.17	0.504	6.42	1.35	6.32	1.05	5.85	–	–	–
L235Y/S267E (antibody)	0.00347	7.02	37.5	7.64	–	–	0.941	6.16	37.2	7.40	–	–	–
L235Y/S267E/L328F (antibody)	0.00436	7.12	171	8.30	–	–	0.758	6.07	187	8.11	–	–	–
S239D/S267E/L328F (antibody)	1.45	9.64	416	8.69	0.216	6.05	1.71	6.42	428	8.46	–	–	–
S267A (antibody)	1.15	9.54	4.29	6.70	0.952	6.70	1.22	6.28	–	6.39	–	–	–
S267D (antibody)	2.11	9.81	8.99	7.02	1.51	6.90	0.93	6.16	4.45	6.48	–	–	–
S267E/A327D (antibody)	1.66	9.70	16.7	7.29	0.00199	4.02	–	–	21.2	7.16	–	–	–
S267E/A327E (antibody)	2.3	9.84	29.3	7.53	0.00894	4.67	2.66	6.61	30.9	7.32	–	–	–
S267E/H268E (antibody)	3.52	10.03	41.7	7.69	3.15	7.22	0.765	6.07	40.6	7.44	–	–	–
S267E/H268E/L328F (antibody)	0.991	9.48	253	8.47	0.092	5.68	0.826	6.11	344	8.37	–	–	–
S267G (antibody)	–	9.20	–	6.29	–	–	–	–	–	5.84	–	–	–
V266M (antibody)	1.25	9.58	3.13	6.56	0.547	6.46	1.17	6.26	1.91	6.11	–	–	–
V266M/S267E (antibody)	1.98	9.78	30.7	7.55	0.0448	5.37	10.9	7.23	29.2	7.30	–	–	–

The remaining lines, values ahead:

Fold [1]	pKd [1]	Fold [2]	pKd [2]	Fold [3]	pKd [3]	Fold [4]	pKd [4]	Fold [5]	pKd [5]	pKd [6]	pKd [7]	pKd [8]	Substance
0.0211	7.81	0.758	5.95	–	–	0.167	5.41	1.54	6.02	–	–	–	G236D (antibody)
0.0902	8.44	29.9	7.54	–	–	0.103	5.20	110	7.87	–	–	–	G236D/S267E/H268E (antibody)
0.0736	8.35	59.9	7.84	–	–	0.0301	4.67	149	8.01	–	–	–	G236D/S267E/L328F (antibody)
2.35	9.85	4.19	6.69	3.08	7.21	1.89	6.47	3.06	6.32	–	–	–	H268D (antibody)
2.35	9.85	269	8.50	–	–	0.993	6.19	221	8.18	–	–	–	IgG1/2ELLGG_S267E/L328F (antibody)
0.131	8.60	10.7	7.09	–	–	–	–	15.1	7.01	–	–	–	L234E/S267E (antibody)
–	7.98	–	–	–	5.18	–	5.94	–	5.75	–	–	–	L234W (antibody)
0.00039	6.07	13	7.18	–	–	–	–	16.7	7.06	–	–	–	L235D/S267E (antibody)
0.0176	7.73	32.5	7.58	–	–	0.402	5.79	28.4	7.29	–	–	–	L235F/S267E (antibody)
1.07	9.51	98.9	8.06	2.6	7.13	1.05	6.21	116	7.90	–	–	–	L235Y/S239D/S267E (antibody)
0.0103	7.49	48.2	7.75	0.428	6.35	0.157	5.38	69.9	7.68	–	–	–	L235Y/S267E/H268E (antibody)
–	9.49	–	–	–	–	–	6.09	–	8.16	–	–	–	S239D/S267E/H268E (antibody)
1.65	9.70	0.688	5.90	3.49	7.26	0.49	5.88	0.803	5.74	–	–	–	S239E (antibody)
0.224	8.83	122	8.15	–	–	1.34	6.32	43.1	7.47	–	–	–	S267E/L328Y (antibody)
–	8.43	–	–	–	6.24	–	5.56	–	7.58	8.49	5.66	7.60	anti-CD19 antibody HuAM4G7, IgG1 Fc variant G236D/S267E
